Experimental data from US20230250154A1 (CYTONICS, published 2023).

Tests used:
Assay in all cases: cell-based or functional assay
ADAMTS4 = biological target: T1, ADAMTS4 (human, UniProt O75173 213-685, limits assumed)
T1 sequence (looked up): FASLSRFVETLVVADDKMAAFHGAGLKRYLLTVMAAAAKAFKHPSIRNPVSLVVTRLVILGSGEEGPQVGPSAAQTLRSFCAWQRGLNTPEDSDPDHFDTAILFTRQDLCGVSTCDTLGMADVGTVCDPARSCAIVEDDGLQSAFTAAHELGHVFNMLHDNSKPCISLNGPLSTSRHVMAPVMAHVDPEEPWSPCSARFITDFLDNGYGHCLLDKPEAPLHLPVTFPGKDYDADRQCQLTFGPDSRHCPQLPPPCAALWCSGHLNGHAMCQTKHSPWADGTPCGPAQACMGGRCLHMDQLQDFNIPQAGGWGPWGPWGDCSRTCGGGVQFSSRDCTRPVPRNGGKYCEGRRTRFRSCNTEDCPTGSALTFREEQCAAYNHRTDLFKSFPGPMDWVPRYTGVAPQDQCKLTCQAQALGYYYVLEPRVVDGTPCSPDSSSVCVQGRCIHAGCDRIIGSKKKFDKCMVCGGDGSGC

ADAMTS5 = biological target: T2, ADAMTS5 (human, UniProt Q9UNA0 262-622, limits assumed)
T2 sequence (looked up): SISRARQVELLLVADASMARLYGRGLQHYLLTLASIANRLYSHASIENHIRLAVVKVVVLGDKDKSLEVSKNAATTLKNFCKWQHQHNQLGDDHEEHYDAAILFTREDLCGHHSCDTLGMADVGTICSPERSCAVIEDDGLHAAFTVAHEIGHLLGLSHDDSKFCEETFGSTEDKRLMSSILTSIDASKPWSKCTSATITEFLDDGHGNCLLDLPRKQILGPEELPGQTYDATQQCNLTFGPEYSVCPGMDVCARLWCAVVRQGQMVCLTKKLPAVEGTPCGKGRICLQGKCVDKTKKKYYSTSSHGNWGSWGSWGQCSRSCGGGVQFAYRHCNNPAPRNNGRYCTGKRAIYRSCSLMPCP

MMP13 = MMP13 (human, UniProt P45452 104-471, limits assumed)

B1: Variant A2M, bait region SEQ ID NO 115 (other)
chain: SVSGKPQYMVLVPSLLHTETTEKGCVLLSYLNETVTVSASLESVRGNRSLFTDLEAENDVLHCVAFAVPKSSSNEEVMFLTVQVKGPTQEFKKRTTVMVKNEDSLVFVQTDKSIYKPGQTVKFRVVSMDENFHPLNELIPLVYIQDPKGNRIAQWQSFQLEGGLKQFSFPLSSEPFQGSYKVVVQKKSGGRTEHPFTVEEFVLPKFEVQVTVPKIITILEEEMNVSVCGLYTYGKPVPGHVTVSICRKYSDASDCHGEDSQAFCEKFSGQLNSHGCFYQQVKTKVFQLKRKEYEMKLHTEAQIQEEGTVVELTGRQSSEITRTITKLSFVKVDSHFRQGIPFFGQVRLVDGKGVPIPNKVIFIRGNEANYYSNATTDEHGLVQFSINTTNVMGTSLTVRVNYKDRSPCYGYQWVSEEHEEAHHTAYLVFSPSKSFVHLEPMSHELPCGHTQTVQAHYILNGGTLLGLKKLSFYYLIMAKGGIVRTGTHGLLVKQEDMKGHFSISIPVKSDIAPVARLLIYAVLPTGDVIGDSAKYDVENCLANKVDLSFSPSQSLPASHAHLRVTAAPQSVCALRAVDQSVLLMKPDAELSASSVYNLLPEKDLTGFPGPLNDQDDEDCINRHNVYINGITYTPVSSTNEKDMYSFLEDMGLKAFTNSKIRKPKMCPQLEEEEGLGSKEEEGLGSPKEEEGLGSKEEEGLGSPKEEEGLGSKLRKYFPETWIWDLVVVNSAGVAEVGVTVPDTITEWKAGAFCLSEDAGLGISSTASLRAFQPFFVELTMPYSVIRGEAFTLKATVLNYLPKCIRVSVQLEASPAFLAVPVEKEQAPHCICANGRQTVSWAVTPKSLGNVNFTVSAEALESQELCGTEVPSVPEHGRKDTVIKPLLVEPEGLEKETTFNSLLCPSGGEVSEELSLKLPPNVVEESARASVSVLGDILGSAMQNTQNLLQMPYGCGEQNMVLFAPNIYVLDYLNETQQLTPEIKSKAIGYLNTGYQRQLNYKHYDGSYSTFGERYGRNQGNTWLTAFVLKTFAQARAYIFIDEAHITQALIWLSQRQKDNGCFRSSGSLLNNAIKGGVEDEVTLSAYITIALLEIPLTVTHPVVRNALFCLESAWKTAQEGDHGSHVYTKALLAYAFALAGNQDKRKEVLKSLNEEAVKKDNSVHWERPQKPKAPVGHFYEPQAPSAEVEMTSYVLLAYLTAQPAPTSEDLTSATNIVKWITKQQNAQGGFSSTQDTVVALHALSKYGAATFTRTGKAAQVTIQSSGTFSSKFQVDNNNRLLLQQVSLPELPGEYSMKVTGEGCVYLQTSLKYNILPEKEEFPFALGVQTLPQTCDEPKAHTSFQISLSVSYTGSRSASNMAIVDVKMVSGFIPLKPTVKMLERSNHVSRTEVSSNHVLIYLDKVSNQTLSLFFTVLQDVPVRDLKPAIVKVYDYYETDEFAIAEYNAPCSKDLGNADYKDDDDKGASHHHHHH
Protease Inhibition (% of WT) (ADAMTS4): 108 % of WT | Protease Inhibition (% of WT) (ADAMTS5): 163 % of WT | Protease Inhibition (% of WT) (MMP13): 78 % of WT

B2: Variant A2M, bait region SEQ ID NO 117 (other)
chain: SVSGKPQYMVLVPSLLHTETTEKGCVLLSYLNETVTVSASLESVRGNRSLFTDLEAENDVLHCVAFAVPKSSSNEEVMFLTVQVKGPTQEFKKRTTVMVKNEDSLVFVQTDKSIYKPGQTVKFRVVSMDENFHPLNELIPLVYIQDPKGNRIAQWQSFQLEGGLKQFSFPLSSEPFQGSYKVVVQKKSGGRTEHPFTVEEFVLPKFEVQVTVPKIITILEEEMNVSVCGLYTYGKPVPGHVTVSICRKYSDASDCHGEDSQAFCEKFSGQLNSHGCFYQQVKTKVFQLKRKEYEMKLHTEAQIQEEGTVVELTGRQSSEITRTITKLSFVKVDSHFRQGIPFFGQVRLVDGKGVPIPNKVIFIRGNEANYYSNATTDEHGLVQFSINTTNVMGTSLTVRVNYKDRSPCYGYQWVSEEHEEAHHTAYLVFSPSKSFVHLEPMSHELPCGHTQTVQAHYILNGGTLLGLKKLSFYYLIMAKGGIVRTGTHGLLVKQEDMKGHFSISIPVKSDIAPVARLLIYAVLPTGDVIGDSAKYDVENCLANKVDLSFSPSQSLPASHAHLRVTAAPQSVCALRAVDQSVLLMKPDAELSASSVYNLLPEKDLTGFPGPLNDQDDEDCINRHNVYINGITYTPVSSTNEKDMYSFLEDMGLKAFTNSKIRKPKMCPQLEENFFGVTEGEARGSPTSEDLVVQKEEEGLGSEAIPMSIPKLRKYFPETWIWDLVVVNSAGVAEVGVTVPDTITEWKAGAFCLSEDAGLGISSTASLRAFQPFFVELTMPYSVIRGEAFTLKATVLNYLPKCIRVSVQLEASPAFLAVPVEKEQAPHCICANGRQTVSWAVTPKSLGNVNFTVSAEALESQELCGTEVPSVPEHGRKDTVIKPLLVEPEGLEKETTFNSLLCPSGGEVSEELSLKLPPNVVEESARASVSVLGDILGSAMQNTQNLLQMPYGCGEQNMVLFAPNIYVLDYLNETQQLTPEIKSKAIGYLNTGYQRQLNYKHYDGSYSTFGERYGRNQGNTWLTAFVLKTFAQARAYIFIDEAHITQALIWLSQRQKDNGCFRSSGSLLNNAIKGGVEDEVTLSAYITIALLEIPLTVTHPVVRNALFCLESAWKTAQEGDHGSHVYTKALLAYAFALAGNQDKRKEVLKSLNEEAVKKDNSVHWERPQKPKAPVGHFYEPQAPSAEVEMTSYVLLAYLTAQPAPTSEDLTSATNIVKWITKQQNAQGGFSSTQDTVVALHALSKYGAATFTRTGKAAQVTIQSSGTFSSKFQVDNNNRLLLQQVSLPELPGEYSMKVTGEGCVYLQTSLKYNILPEKEEFPFALGVQTLPQTCDEPKAHTSFQISLSVSYTGSRSASNMAIVDVKMVSGFIPLKPTVKMLERSNHVSRTEVSSNHVLIYLDKVSNQTLSLFFTVLQDVPVRDLKPAIVKVYDYYETDEFAIAEYNAPCSKDLGNADYKDDDDKGASHHHHHH
Protease Inhibition (% of WT) (ADAMTS4): 100 % of WT | Protease Inhibition (% of WT) (ADAMTS5): 190 % of WT | Protease Inhibition (% of WT) (MMP13): 11 % of WT

B3: Variant A2M, bait region SEQ ID NO 116 (other)
chain: SVSGKPQYMVLVPSLLHTETTEKGCVLLSYLNETVTVSASLESVRGNRSLFTDLEAENDVLHCVAFAVPKSSSNEEVMFLTVQVKGPTQEFKKRTTVMVKNEDSLVFVQTDKSIYKPGQTVKFRVVSMDENFHPLNELIPLVYIQDPKGNRIAQWQSFQLEGGLKQFSFPLSSEPFQGSYKVVVQKKSGGRTEHPFTVEEFVLPKFEVQVTVPKIITILEEEMNVSVCGLYTYGKPVPGHVTVSICRKYSDASDCHGEDSQAFCEKFSGQLNSHGCFYQQVKTKVFQLKRKEYEMKLHTEAQIQEEGTVVELTGRQSSEITRTITKLSFVKVDSHFRQGIPFFGQVRLVDGKGVPIPNKVIFIRGNEANYYSNATTDEHGLVQFSINTTNVMGTSLTVRVNYKDRSPCYGYQWVSEEHEEAHHTAYLVFSPSKSFVHLEPMSHELPCGHTQTVQAHYILNGGTLLGLKKLSFYYLIMAKGGIVRTGTHGLLVKQEDMKGHFSISIPVKSDIAPVARLLIYAVLPTGDVIGDSAKYDVENCLANKVDLSFSPSQSLPASHAHLRVTAAPQSVCALRAVDQSVLLMKPDAELSASSVYNLLPEKDLTGFPGPLNDQDDEDCINRHNVYINGITYTPVSSTNEKDMYSFLEDMGLKAFTNSKIRKPKMCPQLEELEGRGSKEEEGLGSIPENFFGVFYESDVMGRGHARLVHVEEPHTKLRKYFPETWIWDLVVVNSAGVAEVGVTVPDTITEWKAGAFCLSEDAGLGISSTASLRAFQPFFVELTMPYSVIRGEAFTLKATVLNYLPKCIRVSVQLEASPAFLAVPVEKEQAPHCICANGRQTVSWAVTPKSLGNVNFTVSAEALESQELCGTEVPSVPEHGRKDTVIKPLLVEPEGLEKETTFNSLLCPSGGEVSEELSLKLPPNVVEESARASVSVLGDILGSAMQNTQNLLQMPYGCGEQNMVLFAPNIYVLDYLNETQQLTPEIKSKAIGYLNTGYQRQLNYKHYDGSYSTFGERYGRNQGNTWLTAFVLKTFAQARAYIFIDEAHITQALIWLSQRQKDNGCFRSSGSLLNNAIKGGVEDEVTLSAYITIALLEIPLTVTHPVVRNALFCLESAWKTAQEGDHGSHVYTKALLAYAFALAGNQDKRKEVLKSLNEEAVKKDNSVHWERPQKPKAPVGHFYEPQAPSAEVEMTSYVLLAYLTAQPAPTSEDLTSATNIVKWITKQQNAQGGFSSTQDTVVALHALSKYGAATFTRTGKAAQVTIQSSGTFSSKFQVDNNNRLLLQQVSLPELPGEYSMKVTGEGCVYLQTSLKYNILPEKEEFPFALGVQTLPQTCDEPKAHTSFQISLSVSYTGSRSASNMAIVDVKMVSGFIPLKPTVKMLERSNHVSRTEVSSNHVLIYLDKVSNQTLSLFFTVLQDVPVRDLKPAIVKVYDYYETDEFAIAEYNAPCSKDLGNADYKDDDDKGASHHHHHH
Protease Inhibition (% of WT) (ADAMTS4): 107 % of WT | Protease Inhibition (% of WT) (ADAMTS5): 92 % of WT | Protease Inhibition (% of WT) (MMP13): 116 % of WT
